Results from paper PMC10891134, “Bacteria employ lysine acetylation of transcriptional regulators to adapt gene expression to cellular metabolism” (Nature Communications, 2024).

Target: T1, RutR WT (UniProt P0ACU2 1-212)
T1 sequence: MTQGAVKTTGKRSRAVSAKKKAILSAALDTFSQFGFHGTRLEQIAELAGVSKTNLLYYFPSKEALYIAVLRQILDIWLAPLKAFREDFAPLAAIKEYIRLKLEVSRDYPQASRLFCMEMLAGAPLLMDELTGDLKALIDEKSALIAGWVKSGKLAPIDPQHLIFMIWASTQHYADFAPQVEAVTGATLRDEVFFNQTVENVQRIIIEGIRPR
Assay: SPR; ITC: 100 mM potassium phosphate pH 6.4, 150 mM NaCl, 5 mM MgCl2, 2 mM b-ME, 20 or 25 C; SPR: 100 mM potassium phosphate pH 6.4, 300 mM NaCl, 0.05% Tween20, 25 C; EMSA: 20 mM Tris-HCl pH 7.5, 100 mM KCl, 2 mM DTT, 10% glycerol, 25 nM DNA, 30 C
Conditions: protein: recombinant; tags: His6; chain copies: 2; blunt

B1: biotin-boxrutA (dsDNA)
DNA 1: GTTTTATGTGCAACTGTTTTGACCGTTTAGTCCACTTTTTACCAGATATTTTAG
DNA 2: CTAAAATATCTGGTAAAAAGTGGACTAAACGGTCAAAACAGTTGCACATAAAAC
Kd: 4.27 ± 1.19 nM
